pKd: −log10 of the molar value.
Molecular target: rMjShoc2 (recombinant MjShoc2) (Marsupenaeus japonicus)
Assay: ITC; MICROCAL PEAQ-ITC; rFlaA (2 mM) in the syringe, rMjShoc2 (0.2 mM) in the cell; 2 μl injections, 25°C; one set of sites model

## rFlaA (recombinant FlaA of the ITC assay) (from UniProt Q60246 1-379) (natural protein)
  pKd: 5.00

From paper PMC8812994
